Results as given in the RNAGym collection of RNA variant scans (doi:10.1073/pnas.2313332121).
Fewer inactive variants are shown than the library holds.

B1: TPR 5TU (parent)
chain: GGAUCUUCUCGAUCUAACAAAAAAGACAAAUCUGCCACAAAGCUUGAGAGCAUCUUCGGAUGCAGAGGCGGCAGCCUUCGGUGGCGCGAUAGCGCCAACGUUCUCAACUAUGACACGCAAAACGCGUGCUCCGUUGAAUGGAGUUUAUCAUG

Variants of: B1
Assay: polymerase ribozyme fitness, log enrichment relative to wild type (log ratio); higher = more active; in vitro selection for triplet polymerase activity
How it was run: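 Each subunit of a heterodimeric triplet polymerase ribozyme was represented by a PCR-built, transcribed mutant library that underwent triplicate single-round in vitro selection with frozen incubation at −7 °C. Extended constructs were recovered by gel excision, streptavidin-bead capture and RT-PCR, and Illumina sequencing of input and output libraries kept genotypes with ≥10 input reads and ≥1 read per output. Fitness is the logarithm of genotype enrichment relative to wild-type enrichment, from inverse-variance-weighted replicate averages, with a logarithm base of 2.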

Variant | polymerase ribozyme fitness (log ratio)
A24U C93U A119C | -1.98
A24G U145A | -3.78
A24U A28U C79G A91U A97U C116U C132U U135A | ≤ -4.2
A24G C123U C132U U134A | ≤ -4.2
A24U U53A U56G C57U A91U | ≤ -4.2
A24G G62U G94A C116G A120U U127A U135C | ≤ -4.2
A24C U56A G68A G141A | ≤ -4.2
A24C A30G A73U C96A | ≤ -4.2
A24U C35A C85U C132A | ≤ -4.2
A24C A98U | ≤ -4.2
A24C A30C A41U A66U U82C G86U G94U C116A | ≤ -4.2
A24U C32A | -3.85
A23U U56G G58C G74C G88U | ≤ -4.2
A23U G86U A89G C105G C129U | ≤ -4.2
A24U C51G U55A G59C | -2.27
A24G U33G G71A C87G C93G C96A A98G A137G | ≤ -4.2
A24U A60U G83A | -1.22
A24G C96G A137U | ≤ -4.2
A24U C27U C51A G92A A113U | ≤ -4.2
A24U A47C G71C A97U A98G C129G | ≤ -4.2
A24U C96A U145A | 0.748
A24G C75A A113U | ≤ -4.2
A23U U44A U45A A66U C95U A120G | ≤ -4.2
A24U A29G A52G A91U G126U U144G | ≤ -4.2

Variant | polymerase ribozyme fitness (log ratio)
A24G A40C U55G A97U | ≤ -4.2
A24C U61A C63G G81A G94A | ≤ -4.2
A24G C57U | -3.7
A24U C87A | ≤ -4.2
A24U C87U | -0.48
A24U A26U C54U G84U U127A | ≤ -4.2
A23U A52C U55A G81U G84A C99A U127C U145G | ≤ -4.2
A24C C118U C125U | ≤ -4.2
A24C A37G G48C C63U U78G G88C U144G | ≤ -4.2
A24G C69A A91U A138U G143U | ≤ -4.2
A24C | -3.22
A24U | 0.541
A24G | -1.75
A23U C96U | -4.1
A24U C149G | -3.88
A24C A49C G84A A97C U130G A137U | ≤ -4.2
A23U C85G G141A | ≤ -4.2
A24U G68C G83U A107C | ≤ -4.2
A23U C43A C69G C99G U139A U144A | ≤ -4.2
A24C C85U A120C U146A | ≤ -4.2
A23U C35A A41C U55G G86C C95G C105A | ≤ -4.2
A23U C93A A97G A113G G124U | ≤ -4.2
A23U A150G | ≤ -4.2
A23U A26C A30U U56A A60C G86U G88C C95G G124U A137U U148C | ≤ -4.2

Variant | polymerase ribozyme fitness (log ratio)
A23U C125A | -3.51
A24C G34C G50C U134A | ≤ -4.2
A24U A26U G48C G83A A115U C116U | ≤ -4.2
A24G A66G C85A A91U U127C G133A U134A | ≤ -4.2
A24C G88U C95G C96U | ≤ -4.2
A24U U55C C85A | -1.34
A24U C54A G86A | -3.38
A24C G42U U44G U61A G80C A110U | ≤ -4.2
A24U A73U C87A A89U | ≤ -4.2
A24U U55A C87U G92U | -3.1
A24U U102C A120G A121C | -2.13
A24C G62C G86U U102C | ≤ -4.2
A24C C72U C85G C131G G133U | ≤ -4.2
A24U G67C C76G G83U | -2.24
A24U A52U C118G A142U | -3.54
A24U G86A | -1.43
A24U G86U | -2.59
A23U A26U C51A A66U C85U U148C | ≤ -4.2
A23U G50A A60C A66U C85U C95G A122C | ≤ -4.2
A24G C116G | -2.85
A24U C63A | 1.21
A23U A30G U45A A97G G100U | -4.19
A24C C27G U33G C38U A47U U82A G128U | ≤ -4.2
A23U C38A U45G G50C U56A C93G G117A | ≤ -4.2

Variant | polymerase ribozyme fitness (log ratio)
A24C A28U A41C U78G A122G U127A | ≤ -4.2
A24U A28C G59C G86C A122U G133C | ≤ -4.2
A24G C93U | -3.49
A24C G42C G92U C125G | ≤ -4.2
A24G G42U C72A A91U G92A U102G G136U | ≤ -4.2
A24U G34U G42A U55G A91C G94A | -3.62
A24G C32A U33G G65A G80A A98U G126C U145G A147C | ≤ -4.2
A24U C43A A60C C96A A119U G126A | ≤ -4.2
A24G G74A C93G G140C U151G | ≤ -4.2
A24C U31C U33G U53A U78A G88U U134C | ≤ -4.2
A24C G86U U90A U101A A106G A113U A120U G126A | ≤ -4.2
A24C A73G G83C G143U | ≤ -4.2
A24C C95A C96G U144C | ≤ -4.2
A24U A37U U82G | -0.974
A24C U55A C57U G58U A66G G68C C85A C149G | ≤ -4.2
A23U A30G A41C A47G U53G U56A C75A C93U C108G G133C G136A | ≤ -4.2
A23U U109A | ≤ -4.2
A23U A37U A97U U111C | ≤ -4.2
G25A A37G C54A C87G | ≤ -4.2
A23U G58C G88U G136A | ≤ -4.2
A24C G68U C75G C76G A110G A121U | ≤ -4.2
A24U U31C G68U G70A G94U C116G U139G | ≤ -4.2
A23U A24U | -4.12
A24C G67A G81C G88A | ≤ -4.2

Variant | polymerase ribozyme fitness (log ratio)
A23U G25U A29U C43U G58U G86A A107G | ≤ -4.2
A24C A29C U55G G94C | ≤ -4.2
A23U A91G | ≤ -4.2
A23U C36U C85A C96G A97U | ≤ -4.2
A23U C27G A40G A47U G67A G83U G84A | ≤ -4.2
A24U A28G C36U G62A U78G G83A A91G G128C | -3.66
A24U U82A C96G | 0.476
A23U C51U C93U G100U C123G | ≤ -4.2
A24U U82G G83C | -1.55
A23U U90C C93U U102G A119U G124A G133U U134C | ≤ -4.2
A23U G46U C87U G88U A119G A120C G133U | ≤ -4.2
A24U U53A U55A C95U C99A | ≤ -4.2
A24U G58A A66U C87A U90G U146C | ≤ -4.2
A24G A97U G140U | ≤ -4.2
A24U G94A G143U | -3.4
A24G U31A U82C U101G | ≤ -4.2
A24U G42A C108U | 1.52
A24U C36G U56A C57A G71U A91C A106C A110G A138G | ≤ -4.2
A23U A26U A41U G50A G65C A91C C103G G128U | ≤ -4.2
A24U A52G A106G G143A | -1.81
A24U C131U | 2.4
A24U C38G C57G G83C A91U C105A C149A | ≤ -4.2
A24U A73U A119G A121U C132A | -3.66
A24U C35U C38G A89U A91U | -3.93

Variant | polymerase ribozyme fitness (log ratio)
A23U C85U | -3.33
A24G G86U | -3.77
A23U U148C | -4.13
A24G U33G C87U U101G G140C | ≤ -4.2
A24G U61C U82G C95U | ≤ -4.2
A24U G25C A28G A30G A49U G83A C87A | ≤ -4.2
A24U C85U | -0.914
A24C A47G C79U G94C C125U | ≤ -4.2
A24C G46A G94U C95A A115C | ≤ -4.2
A24U A41G C69A C99G | -2.54
A24C A28U A37U U134C | ≤ -4.2
A23U A29U C79G G81U C93G C149U | ≤ -4.2
A24U C93U G136A | -1.47
A24G C85A U146C | ≤ -4.2
A23U U55A | -3.85
A24G G25C A49U G84A U102G | ≤ -4.2
A24U A66G | -3.16
A23U A29C A119U | ≤ -4.2
A24U U53A C57A C95A C123G | 0.167
G25A A49G C96G | -3.91
A24U C96G | -0.301
A24U C96U | 0.0587
A24G A52C C85U C96U C105U A120U G136A | ≤ -4.2
A24C A64C | ≤ -4.2

Variant | polymerase ribozyme fitness (log ratio)
A24G G94C | -3.21
A24U A28U U33A A41C U55G C96U | ≤ -4.2
A24U G74C | -4.19
A23U U55A G88A C114A G136C | ≤ -4.2
A24U C125A | -0.572
A23U A64C G68C | ≤ -4.2
A23U A26C G50A | ≤ -4.2
A24U G68A | -3.78
A24C G46C A73G C93A A110U A147U | ≤ -4.2
A24U U56A U148A | -3.8
A24U G34U A47C C95G C108A A110G A138C A147C G152A | ≤ -4.2
A24C U53C C118U A142C | ≤ -4.2
A24C C32U A49C C85G G86A A91G C123G C132A | ≤ -4.2
A24C G50C C96G A110U | ≤ -4.2
A24U C38A G50U U55A U61G G68C G84U G141A U151G | ≤ -4.2
A24U U56C G62A A64G G68C G83A G124U U146A | ≤ -4.2
A24C C54A A60G A73U U77G | ≤ -4.2
A24U C51A U56A G71U G88C U102C | ≤ -4.2
A23U C114U | -3.88
A24G U53A U61A G84C C125U | ≤ -4.2
A24G C54A | -3.54
A24U A52G C69G G70C G88A | ≤ -4.2
A23U G50C A122C G141C | ≤ -4.2
